By pKd is commonly meant −log10 of the Kd, conventionally taken in molar units.

Common to all, as to assay: holdup assay
Common to all, as to set-up: key: below the threshold = too weak to quantify, mostly under pKd 3.1 to 4
Conditions in all cases: plain residues with an end cap or a label only (N-terminal biotin on a linker: ado-ado)

Assay [1] deals with T1, APBA2_2, Q99767.
T1 sequence (Q99767 654-744, limits assumed, looked up): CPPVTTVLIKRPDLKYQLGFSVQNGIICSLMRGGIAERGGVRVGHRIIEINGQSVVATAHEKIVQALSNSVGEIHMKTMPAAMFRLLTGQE

Assay [2] concerns the target T2, ARHGAP21, Q5T5U3.
T2 sequence (Q5T5U3 45-169, limits assumed, looked up): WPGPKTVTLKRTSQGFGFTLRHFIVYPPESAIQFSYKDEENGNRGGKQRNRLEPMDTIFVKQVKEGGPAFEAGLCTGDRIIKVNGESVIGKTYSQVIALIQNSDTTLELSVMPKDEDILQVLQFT

Assay [3] concerns the target T3, DFNB31_2, Q9P202.
T3 sequence (Q9P202 274-371, limits assumed, looked up): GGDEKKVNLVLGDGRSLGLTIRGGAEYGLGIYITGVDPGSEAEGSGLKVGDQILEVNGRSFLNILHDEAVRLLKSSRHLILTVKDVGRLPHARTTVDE

In assay [4] the target is DLG1_2, Q12959.
DLG1_2, Q12959, sequence (Q12959 314-412): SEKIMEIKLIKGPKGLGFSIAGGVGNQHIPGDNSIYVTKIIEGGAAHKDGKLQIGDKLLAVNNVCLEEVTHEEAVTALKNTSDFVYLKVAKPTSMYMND
The target in assay [5] is DLG2_2, Q15700.
Assay [6] deals with DLG2_3, Q15700.
The target in assay [7] is T4, DLG3_1, Q92796.
T4 sequence (Q92796 125-227, limits assumed, looked up): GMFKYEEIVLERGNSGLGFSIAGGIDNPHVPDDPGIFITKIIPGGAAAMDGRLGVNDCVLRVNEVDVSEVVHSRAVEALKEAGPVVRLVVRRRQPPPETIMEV

In assay [8] the target is HTRA1, Q92743.
HTRA1, Q92743, sequence (Q92743 360-477): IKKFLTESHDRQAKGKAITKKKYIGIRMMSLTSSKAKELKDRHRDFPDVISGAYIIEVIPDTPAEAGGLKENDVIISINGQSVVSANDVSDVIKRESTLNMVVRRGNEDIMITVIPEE
Assay [9] addresses IL16_3, Q14005.
The target of assay [10] is T5, LIN7A, O14910.
T5 sequence (O14910 103-200, limits assumed, looked up): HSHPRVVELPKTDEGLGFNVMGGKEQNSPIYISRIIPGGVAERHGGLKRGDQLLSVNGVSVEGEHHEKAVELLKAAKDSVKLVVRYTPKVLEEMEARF

Assay [11] has as its target T6, LRRC7, Q96NW7.
T6 sequence (Q96NW7 1440-1537, limits assumed, looked up): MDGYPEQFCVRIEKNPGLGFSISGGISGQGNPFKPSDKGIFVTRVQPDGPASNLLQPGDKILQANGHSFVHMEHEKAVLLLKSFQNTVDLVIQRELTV

For assay [12], the target named is MAGI2_5, Q86UL8.
MAGI2_5, Q86UL8, sequence (Q86UL8 915-1017): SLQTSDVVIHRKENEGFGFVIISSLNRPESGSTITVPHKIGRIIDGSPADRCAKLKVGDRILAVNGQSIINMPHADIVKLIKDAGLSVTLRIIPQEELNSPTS
In assay [13] the target is MAST1, Q9Y2H9.
MAST1, Q9Y2H9, sequence (Q9Y2H9 962-1065): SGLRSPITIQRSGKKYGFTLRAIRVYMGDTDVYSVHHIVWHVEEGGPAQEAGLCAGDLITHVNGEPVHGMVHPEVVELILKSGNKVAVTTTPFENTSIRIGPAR
For assay [14], the target named is T7, MPDZ_10, O75970.
T7 sequence (O75970 1624-1722, limits assumed, looked up): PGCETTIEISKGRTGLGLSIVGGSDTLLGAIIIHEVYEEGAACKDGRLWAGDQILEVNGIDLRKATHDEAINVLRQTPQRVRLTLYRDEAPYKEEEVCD

For assay [15], the target named is T8, MPDZ_12, O75970.
T8 sequence (O75970 1857-1958, limits assumed, looked up): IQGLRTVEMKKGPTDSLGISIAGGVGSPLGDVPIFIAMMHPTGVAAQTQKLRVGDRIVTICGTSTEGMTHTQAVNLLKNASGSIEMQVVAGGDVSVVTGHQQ

In assay [16] the target is T9, MPDZ_5, O75970.
T9 sequence (O75970 695-796, limits assumed, looked up): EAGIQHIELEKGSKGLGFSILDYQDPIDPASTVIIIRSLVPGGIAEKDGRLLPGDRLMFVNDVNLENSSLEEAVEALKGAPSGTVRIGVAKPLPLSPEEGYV

Assay [17] deals with T10, NHERF3_1, Q5T2W1.
T10 sequence (Q5T2W1 4-100, limits assumed, looked up): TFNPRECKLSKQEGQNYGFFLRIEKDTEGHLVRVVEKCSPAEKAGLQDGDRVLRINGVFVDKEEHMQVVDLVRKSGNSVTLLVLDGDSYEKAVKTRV

Assay [18] has as its target T11, NHERF3_4, Q5T2W1.
T11 sequence (Q5T2W1 373-468, limits assumed, looked up): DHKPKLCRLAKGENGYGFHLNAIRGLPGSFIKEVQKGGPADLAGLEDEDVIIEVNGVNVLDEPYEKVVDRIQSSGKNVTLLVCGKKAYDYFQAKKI

The target of assay [19] is NOS1, P29475.
NOS1, P29475, sequence (P29475 9-101): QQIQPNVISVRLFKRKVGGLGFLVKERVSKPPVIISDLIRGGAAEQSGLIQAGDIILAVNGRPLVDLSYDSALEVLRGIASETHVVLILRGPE
The target in assay [20] is T12, PDZRN3_1, Q9UPQ7.
T12 sequence (Q9UPQ7 244-349, limits assumed, looked up): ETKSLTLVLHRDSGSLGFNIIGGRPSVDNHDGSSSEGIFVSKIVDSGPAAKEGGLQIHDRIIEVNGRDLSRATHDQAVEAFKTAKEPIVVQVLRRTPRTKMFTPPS

Assay [21] concerns the target PICK1, Q9NRD5.
Assay [22] deals with PTPN3, P26045.
PTPN3, P26045, sequence (P26045 505-587): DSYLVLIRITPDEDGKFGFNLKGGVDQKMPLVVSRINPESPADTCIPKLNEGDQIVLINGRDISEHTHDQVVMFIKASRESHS
Assay [23] deals with TJP1_2, Q07157.
TJP1_2, Q07157, sequence (Q07157 181-274): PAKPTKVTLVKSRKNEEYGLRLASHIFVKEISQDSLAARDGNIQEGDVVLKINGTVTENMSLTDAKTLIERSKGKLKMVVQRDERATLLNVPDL
Assay [24] addresses T13, TX1BP3, O14907.
T13 sequence (O14907 10-122, limits assumed, looked up): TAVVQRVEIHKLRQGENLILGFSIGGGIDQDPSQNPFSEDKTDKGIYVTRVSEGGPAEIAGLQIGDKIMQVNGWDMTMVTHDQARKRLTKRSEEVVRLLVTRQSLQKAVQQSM

IL16_3, Q14005, sequence (Q14005 1107-1207): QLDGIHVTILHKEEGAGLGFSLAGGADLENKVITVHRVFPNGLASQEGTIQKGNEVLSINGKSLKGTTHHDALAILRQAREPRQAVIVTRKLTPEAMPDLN
PICK1, Q9NRD5, sequence (Q9NRD5 17-115): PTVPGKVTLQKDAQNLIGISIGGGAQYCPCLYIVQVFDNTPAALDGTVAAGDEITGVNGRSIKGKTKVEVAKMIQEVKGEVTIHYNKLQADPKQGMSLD

On to RKPKPSSSCC [RAB9A, P51151], for which the pKd result is “below the threshold” in [1]; “below the threshold” in assay [2]; “below the threshold” in assay [3]; “below the threshold” in [4]; “below the threshold” in assay [5]; 3.53 in [6]. Further, the pKd entry in assay [7], in assay [8], in assay [9], in assay [10], in assay [11] and in assay [12] was “below the threshold” each time. For the same molecule, the pKd result in assay [13] was “below the threshold”; in [14] it was “below the threshold”; in assay [15], “below the threshold”; in assay [16], “below the threshold”; in [17], 3.61; in assay [18] it was “below the threshold”. For the same molecule, the pKd result in assay [19] was “below the threshold”; in assay [20], “below the threshold”; in assay [21], “below the threshold”; in assay [22] it was 3.83; in assay [23] it was “below the threshold”; in [24], 3.89.

On to MLSKQSESAI [FLVCR1, Q9Y5Y0], for which the pKd result in assay [1] was “below the threshold”; in assay [2], 4.1; in assay [3], “below the threshold”; in [4], 3.82; in assay [5], “below the threshold”; in [6] it was “below the threshold”. For the same molecule, the negative logarithm of the Kd (pKd) result in [7], in [8], in [9], in [10], in [11] and in assay [12] was “below the threshold” in each case. Besides, the negative logarithm of the Kd (pKd) in assay [13] was 4.18; in assay [14], “below the threshold”; in [15] it was “below the threshold”; in [16], “below the threshold”; in [17] it was 3.81; in assay [18] it was “below the threshold”. Besides, the pKd in assay [19] was 3.79; in assay [20], 3.78; in assay [21] it was “below the threshold”; in [22] it was 4.55; in [23] it was “below the threshold”; in [24], 4.1.

Turning to QSARLWETSI [ADAM22, Q9P0K1], the pKd result in [1] is “below the threshold”; in assay [2] it was “below the threshold”; in assay [3], 3.57; in assay [4] it was 4.47; in [5], 3.85; in assay [6] it was 4.47. The negative-log Kd (pKd) entry is “below the threshold” in assay [7]; 3.92 in [8]; “below the threshold” in [9]; 3.69 in [10]; “below the threshold” in assay [11]; 3.7 in [12]. In addition, the pKd in assay [13] was 4.92; in assay [14], “below the threshold”; in assay [15], “below the threshold”; in assay [16] it was “below the threshold”; in assay [17] it was 4.88; in [18], “below the threshold”. For the same molecule, the pKd entry in assay [19] was “below the threshold”; in assay [20], 4.87; in assay [21], 3.91; in assay [22], 4.83; in [23] it was “below the threshold”; in assay [24], 4.8.

TASPAKETSF [SLC2A7, Q6PXP3]: the pKd result is “below the threshold” in assay [1]; “below the threshold” in [2]; “below the threshold” in assay [3]; 4.5 in assay [4]; 4.06 in assay [5]; 3.88 in assay [6]. Further, the negative-log Kd (pKd) entry was “below the threshold” in assay [7]; “below the threshold” in assay [8]; “below the threshold” in assay [9]; 3.77 in assay [10]; “below the threshold” in [11]; “below the threshold” in assay [12]. Also, the pKd in assay [13] is 4.55; in assay [14], “below the threshold”; in [15], “below the threshold”; in assay [16] it was “below the threshold”; in assay [17], 4.95; in assay [18] it was “below the threshold”. Moreover, the pKd entry in [19] was “below the threshold”; in assay [20], “below the threshold”; in assay [21], “below the threshold”; in assay [22] it was 5.22; in assay [23], “below the threshold”; in [24], 3.79.

The record behind these values is paper PMC9482650, “Quantitative fragmentomics allow affinity mapping of interactomes” (Nature Communications, 2022).
